Data reported in PMC5374107.

Target: ICAM-1D1D5-Fc (human)
Test: SPR; Biacore T-200; ICAM-1D1D5 Fc immobilized to 2100 RU on a CM5 chip pre-coupled to Protein A; wild type or mutant PF11_0521 DBLβ3_D4 injected, two-fold dilutions 4 nM to 500 nM, 40 µL/min, 240 s association, 660 s dissociation; 10 mM HEPES pH 8.0, 300 mM NaCl, 0.05% Tween-20; global fit to a one-site kinetic model

Substance | Kd [nM] | koff [s⁻¹] | kon [M⁻¹ s⁻¹]
PF11_0521 DBLβ3_D4 H1121A (domain or fragment) | 962 | 0.00592 | 6100
PF11_0521 DBLβ3_D4 M1071S (domain or fragment) | 24.6 | 0.000451 | 18400
PF11_0521 DBLβ3_D4 G1083A (domain or fragment) | 3520 | 0.0701 | 19900
PF11_0521 DBLβ3_D4 K1124A (domain or fragment) | 9.75 | 0.000154 | 15900
PF11_0521 DBLβ3_D4 G1111A (domain or fragment) | 34.1 | 0.000639 | 18700
PF11_0521 DBLβ3_D4 P1116A (domain or fragment) | 1690 | 0.00237 | 1300
PF11_0521 DBLβ3_D4 I1078S (domain or fragment) | 1250 | 0.0235 | 18800
PF11_0521 DBLβ3_D4 domain, wild type (domain or fragment) | 3.2 | 6.2e-05 | 19300
PF11_0521 DBLβ3_D4 N1089A (domain or fragment) | 6.3 | 0.000114 | 17900
PF11_0521 DBLβ3_D4 G1084A (domain or fragment) | 4060 | 0.0394 | 9700
PF11_0521 DBLβ3_D4 N1082A (domain or fragment) | 1320 | 0.0244 | 18400
PF11_0521 DBLβ3_D4 T1120A (domain or fragment) | 21.1 | 0.000298 | 14100
PF11_0521 DBLβ3_D4 R1077A (domain or fragment) | 34.7 | 0.000382 | 11000

Target: Recombinant His-tagged EPCR (human) (UniProt Q9UNN8)
Sequence (Q9UNN8 18-238): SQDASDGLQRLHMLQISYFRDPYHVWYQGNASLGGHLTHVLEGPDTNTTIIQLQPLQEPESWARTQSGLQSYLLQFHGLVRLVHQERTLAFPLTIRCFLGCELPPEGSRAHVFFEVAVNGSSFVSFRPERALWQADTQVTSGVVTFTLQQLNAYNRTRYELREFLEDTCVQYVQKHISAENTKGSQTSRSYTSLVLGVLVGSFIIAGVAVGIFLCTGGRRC
Test: SPR; Biacore T-200; biotinylated EPCR immobilized to 650 RU on a CAP chip (Biotin Capture Kit); head structures injected, two-fold dilutions 500 nM to 4 nM, 30 µL/min, 240 s association, 720 s dissociation; 10 mM HEPES pH 7.4, 300 mM NaCl, 0.05% Tween-20, 2 mg/ml ssDNA; one-site kinetic model

Substance | Kd [nM] | koff [s⁻¹] | kon [M⁻¹ s⁻¹]
PFD1235w head structure (CIDRα1.6-DBLβ3) (domain or fragment) | 17.1 | 0.000581 | 34000

Target: ICAM-1D1D5-Fc (human)
Test: SPR; Biacore T-200; ICAM-1D1D5 Fc immobilized to 1,400 RU on a CM5 chip pre-coupled to Protein A; head structures injected, two-fold dilutions 4 nM to 500 nM, 40 µL/min, 240 s association, 600 s dissociation; 10 mM HEPES pH 8.0, 300 mM NaCl, 0.05% Tween-20; one-site kinetic model

Substance | Kd [nM] | koff [s⁻¹] | kon [M⁻¹ s⁻¹]
PFD1235w head structure (CIDRα1.6-DBLβ3) (domain or fragment) | 18 | 0.000108 | 6000
